Where two headings read alike, the source gives them in different places.
Key:
RIG-I (full length) [1] = biological target: T1, RIG-I (full length) (Homo sapiens, UniProt O95786 O95786:1-925); parameters: K half: unit not given here; settings: 5'-OH
T1 sequence: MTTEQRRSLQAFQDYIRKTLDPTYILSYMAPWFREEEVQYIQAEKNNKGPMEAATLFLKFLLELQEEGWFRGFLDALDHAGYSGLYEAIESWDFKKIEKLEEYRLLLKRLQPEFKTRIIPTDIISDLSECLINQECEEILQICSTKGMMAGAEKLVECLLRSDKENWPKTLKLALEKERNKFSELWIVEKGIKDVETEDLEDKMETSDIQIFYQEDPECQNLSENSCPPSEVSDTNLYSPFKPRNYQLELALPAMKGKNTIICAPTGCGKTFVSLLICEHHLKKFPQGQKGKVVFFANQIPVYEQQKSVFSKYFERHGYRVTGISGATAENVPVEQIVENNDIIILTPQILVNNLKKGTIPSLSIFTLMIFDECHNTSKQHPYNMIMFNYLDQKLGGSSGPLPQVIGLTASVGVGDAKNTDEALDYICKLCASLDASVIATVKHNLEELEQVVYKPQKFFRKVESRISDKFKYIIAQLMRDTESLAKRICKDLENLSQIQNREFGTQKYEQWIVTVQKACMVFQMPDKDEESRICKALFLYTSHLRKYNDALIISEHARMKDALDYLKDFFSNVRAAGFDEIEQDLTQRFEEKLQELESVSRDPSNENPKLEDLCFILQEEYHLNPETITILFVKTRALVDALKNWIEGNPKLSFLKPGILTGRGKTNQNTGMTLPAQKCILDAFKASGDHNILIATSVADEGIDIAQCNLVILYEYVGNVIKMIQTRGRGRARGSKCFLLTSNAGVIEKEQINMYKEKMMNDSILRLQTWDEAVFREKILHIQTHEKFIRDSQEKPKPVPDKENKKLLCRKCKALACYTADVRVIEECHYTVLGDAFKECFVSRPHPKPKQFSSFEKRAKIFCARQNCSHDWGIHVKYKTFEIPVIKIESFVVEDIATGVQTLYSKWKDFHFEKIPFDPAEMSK

RIG-I (full length) [2] = biological target: T1, RIG-I (full length); settings: Km,RNA per estimated poly I:C strand, ATPase assay at 5 mM ATP
RIG-I (full length) [3] = biological target: T1, RIG-I (full length); test: Km,RNA (apparent binding constant), ATPase assay at 5 mM ATP, 5 nM RIG-I, MOPS pH 7.4, 150 mM KCl; SD 0.20; settings: tags: pET-SUMO (His-SUMO vector, Ni-NTA purified), E. coli Rosetta II(DE3); palindromic blunt duplex
Method: (§1) ATPase activity of RIG-I was measured with the NADH-coupled ATPase assay adapted from previously described protocols (Luo et al., 2011, Cell 147:409-422). Experiments were set up in 50 μl reaction volumes in 96 well format using Corning clear half-area flat bottom plates (#3695). Each 50 μl reaction contained 10 μl of 5×NADH enzyme buffer (1 mM NADH, 100 U of lactate dehydrogenase/mL, 500 U/mL of pyruvate kinase/mL, and 2.5 mM phosphoenolpyruvate), 5-10 nM of RIG-I, 5 μl of varying amounts of either RNA or ATP, and a remaining volume of 25 mM 3-(N-morpholino)propanesulfonic acid (MOPS) pH 7.4, 150 mM KCl, 2 mM DTT, and 0.1% Triton X-100. The rate of ATP hydrolysis was indirectly determined by monitoring the loss of NADH by reading the absorbance at 340 nm using a Biotek Synergy H1 plate reader.
(§2) To more precisely define the minimal duplex length for enzymatic activation of RIG-I, the steady-state kinetic parameters for RIG-I activation by RNA hairpins and double-stranded duplexes ranging in size from 8 to 30 base pairs, was measured with and without a 5′triphosphate (RNAs listed in Table 2). […]

RIG-I (full length) [4] = biological target: T1, RIG-I (full length); test: Km,RNA, ATPase assay at 5 mM ATP; SD 1.0; settings: tags: pET-SUMO (His-SUMO vector, Ni-NTA purified), E. coli Rosetta II(DE3)
Method: as §1
To more precisely define the minimal duplex length for enzymatic activation of RIG-I, the steady-state kinetic parameters for RIG-I activation by RNA hairpins and double-stranded duplexes ranging in size from 8 to 30 base pairs, was measured with and without a 5′triphosphate (RNAs listed in Table 2). In order to evaluate the respective roles of ATP and RNA in activation of the RIG-I:RNA complex, the Michaelis constant for ATP (K_{m,ATP}) at saturating RNA (500 nM) and the Michaelis constant for RNA (K_{m,RNA}) at saturating ATP (5 mM) was measured for each RNA construct (kcat, K_{m,ATP} and K_{m,RNA} summary in Table 4).

RIG-I (full length) [5] = biological target: T1, RIG-I (full length); test: Km,RNA, ATPase assay at 5 mM ATP; SD 0.40; settings: tags: pET-SUMO (His-SUMO vector, Ni-NTA purified), E. coli Rosetta II(DE3); hairpin, 8 bp, UUCG tetraloop, blunt end
Method: as §1, §2

RIG-I (full length) [6] = biological target: T1, RIG-I (full length); test: Km,RNA, ATPase assay at 5 mM ATP; SD 3.4; settings: tags: pET-SUMO (His-SUMO vector, Ni-NTA purified), E. coli Rosetta II(DE3); palindromic blunt duplex
Method: as §1, §2

RIG-I (full length) [7] = biological target: T1, RIG-I (full length); test: Km,RNA, ATPase assay at 5 mM ATP; SD 0.50; settings: tags: pET-SUMO (His-SUMO vector, Ni-NTA purified), E. coli Rosetta II(DE3)
Method: as §1, §2

RIG-I (full length) [8] = biological target: T1, RIG-I (full length); test: Km,RNA, ATPase assay at 5 mM ATP; SD 15; settings: tags: pET-SUMO (His-SUMO vector, Ni-NTA purified), E. coli Rosetta II(DE3); palindromic blunt duplex
Method: as §1, §2

RIG-I (full length) [9] = biological target: T1, RIG-I (full length); test: Km,RNA, ATPase assay at 5 mM ATP; SD 0.20; settings: tags: pET-SUMO (His-SUMO vector, Ni-NTA purified), E. coli Rosetta II(DE3); palindromic blunt duplex
Method: as §1, §2

RIG-I (full length) [10] = biological target: T1, RIG-I (full length); test: Km,RNA, ATPase assay at 5 mM ATP; SD 1.5; settings: tags: pET-SUMO (His-SUMO vector, Ni-NTA purified), E. coli Rosetta II(DE3); palindromic blunt duplex
Method: as §1, §2

RIG-I (full length) [11] = biological target: T1, RIG-I (full length); test: Km,RNA, ATPase assay at 5 mM ATP; SD 1.3; settings: tags: pET-SUMO (His-SUMO vector, Ni-NTA purified), E. coli Rosetta II(DE3); palindromic blunt duplex
Method: as §1, §2

RIG-I (full length) [12] = biological target: T1, RIG-I (full length); test: Km,RNA, ATPase assay at 5 mM ATP; SD 0.10; settings: tags: pET-SUMO (His-SUMO vector, Ni-NTA purified), E. coli Rosetta II(DE3); palindromic blunt duplex
Method: as §1, §2

RIG-I (full length) [13] = biological target: T1, RIG-I (full length); test: Km,RNA, ATPase assay at 5 mM ATP; SD 1.1; settings: tags: pET-SUMO (His-SUMO vector, Ni-NTA purified), E. coli Rosetta II(DE3); palindromic blunt duplex
Method: as §1, §2

**Q.** With LMW poly I:C as the molecule, how does the activity (RIG-I (full length) [1]; ATPase kcat, Km,ATP 690 uM) read?
**A.** Its activity is 4.9 s⁻¹.

**Q.** And the K half (RIG-I (full length) [1]; Km,RNA, ATPase assay at 5 mM ATP, SD 1.1)?
**A.** Its K half is 2.4.

**Q.** How did the K half (RIG-I (full length) [2]) turn out when poly I:C fraction A1 (~500 bp) was run?
**A.** The K half was 20 nM.

**Q.** How did the K half (RIG-I (full length) [2]) turn out when poly I:C fraction A7 (~25 bp) was run?
**A.** The K half was 20 nM.

B1: 5'pppGC10 (dsRNA)
RNA 1: GGCGCGCGCC
RNA 2: GGCGCGCGCC
modifications: 5'-triphosphate
**Q.** For B1, which “apparent K (half saturation)” value (RIG-I (full length) [3]) is on record?
**A.** Its value is 1.16 nM.

B2: 5'ppp30L (ssRNA)
RNA: GGAUCGAUCGAUCGAUCGGCAUCGAUCGGCUUCGGCCGAUCGAUGCCGAUCGAUCGAUCGAUCC
modifications: 5'-triphosphate
**Q.** With B2 as the molecule, how does the “apparent K (half saturation)” value (RIG-I (full length) [4]; hairpin, 30 bp, UUCG tetraloop, blunt end) read?
**A.** The value was 10.8 nM.

B3: 5'ppp8L (ssRNA)
RNA: GGCGCGGCUUCGGCCGCGCC
modifications: 5'-triphosphate
**Q.** For B3, which “apparent K (half saturation)” value (RIG-I (full length) [5]) is on record?
**A.** Its value is 5.16 nM.

B4: GC18 (dsRNA)
RNA 1: GCGCGCGCGCGCGCGCGC
RNA 2: GCGCGCGCGCGCGCGCGC
modifications: 5'-OH
**Q.** For B4, which “apparent K (half saturation)” value (RIG-I (full length) [6]) is on record?
**A.** The value was 26.7 nM.

B5: GC12 (dsRNA)
RNA 1: GCGCGCGCGCGC
RNA 2: GCGCGCGCGCGC
modifications: 5'-OH
**Q.** How did the “apparent K (half saturation)” value (RIG-I (full length) [4]; palindromic blunt duplex) turn out when B5 was run?
**A.** Its value is 13.1 nM.

B6: 5'pppGC22 (dsRNA)
RNA 1: GGCGCGCGCGCGCGCGCGCGCC
RNA 2: GGCGCGCGCGCGCGCGCGCGCC
modifications: 5'-triphosphate
**Q.** B6 was tested. Which “apparent K (half saturation)” value (RIG-I (full length) [4]; palindromic blunt duplex, two 5'ppp ends) did it give?
**A.** Its value is 3.58 nM.

B7: 5'ppp20L (ssRNA)
RNA: GGAUCGAUCGAUCGAUCGGCUUCGGCCGAUCGAUCGAUCGAUCC
modifications: 5'-triphosphate
**Q.** B7 was tested. Which “apparent K (half saturation)” value (RIG-I (full length) [7]) did it give?
**A.** The value was 10.1 nM.

B8: 5'ppp10L (ssRNA)
RNA: GGACGUACGUUUCGACGUACGUCC
modifications: 5'-triphosphate
**Q.** With B8 as the molecule, how does the “apparent K (half saturation)” value (RIG-I (full length) [7]; hairpin, 10 bp, UUCG tetraloop, blunt end) read?
**A.** Its value is 4.46 nM.

B9: GC8 (dsRNA)
RNA 1: GCGCGCGC
RNA 2: GCGCGCGC
modifications: 5'-OH
**Q.** For B9, which “apparent K (half saturation)” value (RIG-I (full length) [8]) is on record?
**A.** Its value is 91.4 nM.

B10: 5'pppGC12 (dsRNA)
RNA 1: GGCGCGCGCGCC
RNA 2: GGCGCGCGCGCC
modifications: 5'-triphosphate
**Q.** B10 was tested. Which “apparent K (half saturation)” value (RIG-I (full length) [9]) did it give?
**A.** The value was 2.33 nM.

B11: GC10 (dsRNA)
RNA 1: GCGCGCGCGC
RNA 2: GCGCGCGCGC
modifications: 5'-OH
**Q.** B11 was tested. Which “apparent K (half saturation)” value (RIG-I (full length) [10]) did it give?
**A.** Its value is 24.4 nM.

B12: GC14 (dsRNA)
RNA 1: GCGCGCGCGCGCGC
RNA 2: GCGCGCGCGCGCGC
modifications: 5'-OH
**Q.** Which “apparent K (half saturation)” value (RIG-I (full length) [11]) does the source give for B12 here?
**A.** Its value is 23.2 nM.

B13: 5'pppCM12 (dsRNA)
RNA 1: GGACGUACGUCC
RNA 2: GGACGUACGUCC
modifications: 5'-triphosphate
**Q.** Which “apparent K (half saturation)” value (RIG-I (full length) [12]) does the source give for B13 here?
**A.** Its value is 2.62 nM.

B14: GC22 (dsRNA)
RNA 1: GCGCGCGCGCGCGCGCGCGCGC
RNA 2: GCGCGCGCGCGCGCGCGCGCGC
modifications: 5'-OH
**Q.** For B14, which “apparent K (half saturation)” value (RIG-I (full length) [13]) is on record?
**A.** Its value is 27.3 nM.

Source: patent US20160046943, “Interferon Production Using Short RNA Duplexes” (YALE UNIVERSITY, published 2016)
